Results reported in patent publication US20230037815A1 (CULLINAN THERAPEUTICS, published 2023).

Assays:
mouse serum albumin [1] = target: T1, mouse serum albumin (mouse, UniProt P07724 25-608); assay: ratio of the Octet KD for mouse serum albumin to that for human serum albumin
T1 construct: also called MSA

mouse serum albumin [2] = target: T1, mouse serum albumin; assay: Octet HTX (ForteBio), HCAb on AHC sensor, 1:1 fit
cynomolgus serum albumin = cynomolgus serum albumin (cynomolgus, UniProt A2V9Z4 25-608); assay: Octet HTX (ForteBio), HCAb on AHC sensor, 1:1 fit
human serum albumin = target: T2, human serum albumin (human, UniProt P02768 25-609); assay: Octet HTX (ForteBio), HCAb on AHC sensor, 1:1 fit
T2 construct: also called HSA

protein A = protein A (UniProt P38507 37-327); assay: Octet HTX (ForteBio), HCAb on AHC sensor; legend: no binding was detected under the conditions of this assay
human CD3 [3] = target: human CD3 (human); assay: method not given
human CD3 [4] = target: human CD3 (human); assay: SPR, BiaCore method of WO2018208864A1
human CD3 [5] = target: human CD3 (human); assay: BLI, Octet method of WO2018208864A1

human CD3 (human), sequence (chain, as listed by the source): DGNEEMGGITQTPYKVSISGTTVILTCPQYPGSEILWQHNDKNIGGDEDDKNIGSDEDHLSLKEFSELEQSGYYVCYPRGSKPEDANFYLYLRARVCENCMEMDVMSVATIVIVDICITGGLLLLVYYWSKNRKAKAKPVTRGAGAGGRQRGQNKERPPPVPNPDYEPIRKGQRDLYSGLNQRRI
T1 sequence (P07724 25-608 limits assumed): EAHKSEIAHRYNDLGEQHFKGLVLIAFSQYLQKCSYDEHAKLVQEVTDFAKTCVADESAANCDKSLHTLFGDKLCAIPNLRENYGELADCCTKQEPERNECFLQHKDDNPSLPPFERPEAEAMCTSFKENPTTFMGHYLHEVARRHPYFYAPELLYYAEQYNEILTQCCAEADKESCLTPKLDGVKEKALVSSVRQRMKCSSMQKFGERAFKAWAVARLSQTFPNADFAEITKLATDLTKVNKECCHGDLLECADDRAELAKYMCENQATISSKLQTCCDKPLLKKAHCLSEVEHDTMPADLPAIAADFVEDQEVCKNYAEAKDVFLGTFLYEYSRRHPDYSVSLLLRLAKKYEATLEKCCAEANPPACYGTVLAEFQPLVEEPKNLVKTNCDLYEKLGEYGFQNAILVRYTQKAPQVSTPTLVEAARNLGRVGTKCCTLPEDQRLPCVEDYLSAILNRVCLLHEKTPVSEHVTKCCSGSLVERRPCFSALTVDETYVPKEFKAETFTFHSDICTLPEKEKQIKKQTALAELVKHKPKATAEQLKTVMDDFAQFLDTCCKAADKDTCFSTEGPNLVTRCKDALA
cynomolgus serum albumin, sequence (A2V9Z4 25-608 limits assumed): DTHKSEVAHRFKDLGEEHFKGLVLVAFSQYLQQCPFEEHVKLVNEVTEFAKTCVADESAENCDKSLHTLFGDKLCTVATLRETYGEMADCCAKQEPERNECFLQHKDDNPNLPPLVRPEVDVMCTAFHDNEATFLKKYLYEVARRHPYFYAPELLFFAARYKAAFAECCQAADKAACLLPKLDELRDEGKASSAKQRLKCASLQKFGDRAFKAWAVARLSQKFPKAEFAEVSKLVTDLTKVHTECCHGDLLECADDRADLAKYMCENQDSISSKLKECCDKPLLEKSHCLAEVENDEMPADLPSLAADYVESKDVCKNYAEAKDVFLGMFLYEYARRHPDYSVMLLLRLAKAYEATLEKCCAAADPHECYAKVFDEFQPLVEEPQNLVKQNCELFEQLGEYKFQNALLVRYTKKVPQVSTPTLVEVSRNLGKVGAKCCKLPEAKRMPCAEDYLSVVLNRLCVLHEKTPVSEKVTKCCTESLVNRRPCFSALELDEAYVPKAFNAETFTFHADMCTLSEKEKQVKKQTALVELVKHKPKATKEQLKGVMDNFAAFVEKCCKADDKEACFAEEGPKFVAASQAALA

B1: CNG-HSA-106 (VHH)
VHH: KVQLLESGGGLVQPGGSLRLSCAASGFTFSSFGMSWVRQAPGKGLEWVSSISGSGSDTLYADSVRGRFTISRDNSKNTLYLQMDSLRAEDTAVYYCTIGGSRSISSQGTLVTVSS
Ratio of MSA-KD to HSA-KD (mouse serum albumin [1]): 3.41 | Kd (mouse serum albumin [2]): 57.8 nM | koff (mouse serum albumin [2]): 0.0124 s⁻¹ | Kd (cynomolgus serum albumin): 14.4 nM | koff (cynomolgus serum albumin): 0.00238 s⁻¹ | Kd (human serum albumin): 17 nM | koff (human serum albumin): 0.00297 s⁻¹ | binding result (protein A): no binding

B2: CNG-CD3-1 scFv construct (scFv)
scFv: DIVMTQSPDSLAVSLGERATINCKSSQSLLNARTGKNYLAWYQQKPGQPPKLLIYWASTRESGVPDRFSGSGSGTDFTLTISSLQAEDVAVYYCKQSYSRRTFGGGTKVEIKGGGGSGGGGSGGGGSGGGGSQVQLVQSGAEVKKPGASVKVSCKASGFNIKDYYMHWVRQAPGQRLEWMGWIDLENANTIYDAKFQGRVTITRDTSASTAYMELSSLRSEDTAVYYCARDAYGRYFYDVWGQGTLVTVSS
Kd (human CD3 [3]): 1.6 nM | Kd (human CD3 [4]): 1.9 nM | Kd (human CD3 [5]): 4.4 nM
